Experimental findings from US20240124563A1 (NANJING ZAIMING PHARMACEUTICAL, published 2024) are described below.

Test [1] deals with T1, human MSLN-R1-his protein (human, UniProt Q13421 296-390).
T1 construct: MSLN-R1 = Glu296-Thr390; also called hMSLN-R1-his; not shown: histidine tag
T1 chain: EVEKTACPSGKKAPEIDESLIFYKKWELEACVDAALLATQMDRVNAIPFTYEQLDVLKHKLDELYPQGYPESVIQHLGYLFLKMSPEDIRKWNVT
The test can be described thus: ELISA, antibody 0.1 nM.

Test [2] has as its target T2, human MSLN-FL-his protein (human, UniProt Q13421 296-580).
T2 construct: Made in HEK293E cells, purified on nickel column; also called hMSLN-FL-his; not shown: histidine tag
The test can be described thus: competitive ELISA on MSLN-FL-His; other antibody: NB149-70 (3.m9). (In general: In an ELISA, binding on a coated surface is turned into a signal by an enzyme label.)

For test [3], the target named is T1, human MSLN-R1-his protein. The test can be described thus: ELISA, antibody 0 nM (blank).
For test [4], the target named is T1, human MSLN-R1-his protein. The test can be described thus: ELISA, antibody 0.01 nM.
Test [5] addresses T3, human MSLN-R2-his protein (human, UniProt Q13421 391-486).
T3 construct: MSLN-R2 = Ser391-Asn486; also called hMSLN-R2-his; not shown: histidine tag
The test can be described thus: ELISA, antibody 0.1 nM.

Test [6] has as its target T2, human MSLN-FL-his protein. The test can be described thus: competitive ELISA on MSLN-FL-His; other antibody: NB148-13 (3.m1).
Protocol: (§1) To identify a binding site of an antibody to an antigen, MSLN VHH-hFc was grouped using a competitive ELISA method.
(§2) VHH-hFc was diluted to 2 μg/mL with PBS, and coated 96-well high-adsorption ELISA plates at 50 μL/well overnight at 4° C., 250 μL of blocking buffer (PBS containing 2% (w/w) BSA) was added for two hours of blocking at room temperature, 40 μg/mL of antibody to be tested was added, the human MSLN-FL-His protein with a concentration of EC80 corresponding to each antibody to be tested was then added for 2 hours of incubation, washing was performed with PBS 5 times, an HRP-labeled anti-His secondary antibody (purchased from Genescript, Cat. No. A00612) was then added for 1 hour of incubation, and the plates were washed 5 times. TMB substrate was added at 50 μl per well, and after 10 minutes of incubation at room temperature, stop solution (1.0 M HCl) was added at 50 μl per well. OD450 nm values were read using an ELISA plate reader (Insight, purchased from PerkinElmer), and the competition rate between the antibodies was calculated according to the OD450 nm values using a formula.
Test [7] deals with T2, human MSLN-FL-his protein. The test can be described thus: competitive ELISA on MSLN-FL-His; other antibody: Tab142 (R1) (3.m16).
Protocol: as §1, §2
Test [8] concerns the target T2, human MSLN-FL-his protein. The test can be described thus: competitive ELISA on MSLN-FL-His; other antibody: Tab108 (R3) (3.m14).
Protocol: as §1, §2
The target of test [9] is T4, human MSLN-R3-his protein (human, UniProt Q13421 487-598).
T4 construct: MSLN-R3 = Met487-Ser598; also called hMSLN-R3-his; not shown: histidine tag
The test can be described thus: ELISA, antibody 1 nM.

The target of test [10] is T2, human MSLN-FL-his protein. The test can be described thus: competitive ELISA on MSLN-FL-His; other antibody: NB149-95 (3.m11).
Protocol: as §1, §2
In test [11] the target is T3, human MSLN-R2-his protein. The test can be described thus: ELISA, antibody 0.0001 nM.
For test [12], the target named is T3, human MSLN-R2-his protein. The test can be described thus: ELISA, antibody 1 nM.
Test [13] deals with T2, human MSLN-FL-his protein. The test can be described thus: competitive ELISA on MSLN-FL-His; other antibody: NB148-88 (3.m6).
Protocol: as §1, §2

T3 sequence (Q13421 other isoform, or with tags, fused parts or gaps): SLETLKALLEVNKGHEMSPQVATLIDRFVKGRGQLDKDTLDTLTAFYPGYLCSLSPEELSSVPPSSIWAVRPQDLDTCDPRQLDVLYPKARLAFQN
T4 sequence (Q13421 495-606): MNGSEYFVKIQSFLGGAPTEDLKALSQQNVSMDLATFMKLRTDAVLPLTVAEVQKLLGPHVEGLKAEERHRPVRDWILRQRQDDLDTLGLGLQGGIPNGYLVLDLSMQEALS

B1: Tab107 (YP3, hIgG1) (antibody, V domains shown)
VH: QEQLVESGGGLVQPGASLTLTCTASGIDFSRYYMCWVRQAPGKGLEGIACIYIGGSGSTYYASWAKGRFTISKASSTTVTLQMTSLTAADTATYFCARGTNLNYIFRLWGPGTLVTVSS
VL: DVVMTQTPSPVSAAVGGTVTIKCQASQSINNGLAWYQQKPGQPPRLLIYSASNLESGVPSRFKGSGSGTEFTLTISDLECDDAATYYCQCIWDGNSYVNAFGGGTEVVVRT
notes: also called YP3 human IgG1 antibody
B1: the OD450 nm in test [1] stood at 0.05; in test [3] it was 0.05; in test [4], 0.06; in test [5] it was 0.04; in test [9], 0.05; in test [11], 0.04. The same molecule registered an OD450 nm in [12] of 0.05. Besides, the inhibition rate in test [2] was -10%; in test [6] it was 38%; in test [7], -9%; in test [8], 21%; in test [10] it was -5%; in test [13] it was 4%.
